The target in experiment [1] is ClpX^ΔN (residues 62–424) T199S mutant (E. coli) (UniProt P0A6H1).
Experiment [2] concerns the target ClpX^ΔN (residues 62–424) T199V mutant (E. coli) (UniProt P0A6H1).
Experiment [3] addresses E. coli ClpX^∆N (residues 62–424) (E. coli) (UniProt P0A6H1).

For GFP-ssrA, the KM of GFP-ssrA degradation by ClpX^∆N variant/ClpP (Michaelis-Menten fit) in experiment [1] was 6.3 µM; in experiment [2], 89 µM. Further, the KM of GFP-ssrA degradation by ClpX^∆N/ClpP (Michaelis-Menten fit) in experiment [3] was determined as 1.3 µM.

For the origin of these results see PMC7652416.
